Results from US20170152308A1 (Biogen, published 2017).
Where two headings read alike, the source gives them in different places. No end group written: not given here.

Legend:
[1] = target: T1, recombinant full-length His-tagged human TDP-43 (2-414) (human, UniProt Q13148 2-414); test: direct ELISA, coated antigen
T1 construct: Amino terminal His tag, made in E. coli, purified in 8 M urea; also called full length TDP-43; full-length TDP-43
Summary of the method: (§1)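 Plates coated overnight at 4° C with full-length TDP-43 at 5 μg/ml in carbonate buffer pH 9.6, with E. coli extract and BSA coated alongside. After blocking with 2% BSA, antibodies incubated 1 hr at room temperature and detected by HRP anti-human IgGγ colorimetric read-out. EC₅₀ from non-linear regression.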

[2] = target: T1, recombinant full-length His-tagged …; test: direct ELISA, coated antigen; remark: listed apart in the source
Summary of the method: as §1

[3] = target: T2, 6xHis-SUMO-TDP-43 (220-414) (human, UniProt Q13148 220-414); test: capture ELISA, antigen held by anti-6xHis antibody
T2 construct: Captured on the plate by an anti-6xHis antibody; also called 6xHis/SUMO tagged truncated TDP-43; not shown: N-terminal 6xHis and SUMO tags from a modified pET19-b vector
Summary of the method: (§2)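 Anti-6×His antibody captured 6×His-SUMO-TDP-43 (1.7 μM, 1 hr RT) in PBS with 1% BSA, 300 mM arginine and 0.1% PEG 5000, pH 7.5, avoiding direct adsorption. Three-fold antibody titrations were incubated 1 hr RT and detected with HRP anti-human IgG Fc colorimetrically. EC₅₀ from a four-parameter logistic fit.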

[4] = target: T3, His-huTDP-43 domain II (amino acid residues 99-204) (human); test: direct ELISA, coated antigen; direct ELISA, domain coated at 6.6 ug/ml (Example 1, FIG. 2F)
T3 construct: Amino terminal His-tagged fragment, E. coli
T3 chain: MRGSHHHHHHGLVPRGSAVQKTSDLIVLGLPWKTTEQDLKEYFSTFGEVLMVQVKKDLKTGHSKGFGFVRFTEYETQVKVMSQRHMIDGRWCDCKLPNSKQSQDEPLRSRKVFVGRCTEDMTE
Experimental: (§3) Non-specific binding sites were blocked for 1 hr. at room temperature with PBST containing 2% BSA (Sigma, Buchs, Switzerland). Antibodies were incubated 1 hr. at room temperature. Binding was determined using either a donkey anti-human IgGγ-specific antibody conjugated with HRP (Jackson ImmunoResearch, USA) or a goat-anti mouse IgG (H+L)-specific secondary antibody conjugated with HRP (Jackson ImmunoResearch, USA)., followed by measurement of HRP activity in a standard colorimetric assay.
(§4) The polypeptides were coated onto ELISA plates at equal coating concentration of 6.6 μg/ml (recombinant TDP-43 and TDP-43 fragments) or 3.3 μg/ml (synthetic peptides). Binding of the human-derived antibodies was determined by direct ELISA.

[5] = target: T4, His-huTDP-43 domain IV (amino acid residues 258-414) (human, UniProt Q13148 258-414); test: direct ELISA, His-tagged TDP-43 fragments coated at 6.6 ug/ml, OD 450
T4 construct: Amino terminal His-tagged fragment, E. coli, solubilized in 8 M urea; also called Glycine-rich domain
Experimental: as §3

[6] = target: T5, His-huTDP-43 domain I (amino acid residues 2-106) (human); test: as above
T5 construct: Amino terminal His-tagged fragment, E. coli; also called N-terminal domain
T5 chain: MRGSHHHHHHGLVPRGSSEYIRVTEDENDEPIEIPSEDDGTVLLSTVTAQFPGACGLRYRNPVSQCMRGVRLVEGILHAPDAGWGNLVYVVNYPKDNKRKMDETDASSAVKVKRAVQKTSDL
Experimental: as §3

[7] = target: T6, His-huTDP-43 domain III (amino acid residues 183-273) (human); test: as above
T6 construct: Amino terminal His-tagged fragment, E. coli
T6 chain: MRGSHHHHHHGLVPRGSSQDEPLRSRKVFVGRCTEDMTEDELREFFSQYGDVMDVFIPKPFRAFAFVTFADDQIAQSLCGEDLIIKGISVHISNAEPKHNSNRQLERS
Experimental: as §3

[8] = target: T5, His-huTDP-43 domain I (amino acid …); test: direct ELISA, coated antigen; direct ELISA, domain coated at 6.6 ug/ml (Example 1, FIG. 2H)
Experimental: as §3, §4

[9] = target: T3, His-huTDP-43 domain II (amino acid …); test: direct ELISA, His-tagged TDP-43 fragments coated at 6.6 ug/ml, OD 450
Experimental: as §3

[10] = target: T5, His-huTDP-43 domain I (amino acid …); test: direct ELISA, TDP-43 fragments coated at 6.6 ug/ml, OD 450
Experimental: as §3

[11] = target: T7, TDP-43 C terminal fragment 258-319 (human, UniProt Q13148 258-319); test: direct ELISA, coated fragments
T7 construct: Recombinant fragment

[12] = target: T8, TDP-43 C terminal fragment 340-414 (human, UniProt Q13148 340-414); test: direct ELISA, coated fragments
T8 construct: Recombinant fragment

[13] = target: T9, mutant TDP-43 domain IV (TDP-43 258-414 AMM321GGG) (human, UniProt Q13148 258-414); test: direct ELISA, coated antigen
T9 construct: Recombinant
T9 chain: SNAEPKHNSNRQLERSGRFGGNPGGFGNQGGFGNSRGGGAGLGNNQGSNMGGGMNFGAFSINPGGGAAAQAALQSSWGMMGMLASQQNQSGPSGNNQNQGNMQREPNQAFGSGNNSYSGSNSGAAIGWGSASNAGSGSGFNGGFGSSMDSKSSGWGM

[14] = target: T10, synthetic biotinylated peptide TDP-43 316-353 (human, biotinylated (site not stated)); test: direct ELISA, biotinylated peptide on streptavidin plate
T10 construct: On streptavidin-coated plates
T10 peptide: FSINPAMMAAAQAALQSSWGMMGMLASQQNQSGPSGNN

[15] = target: T11, synthetic biotinylated peptide TDP-43 316-343 (human, biotinylated (site not stated)); test: as above
T11 construct: On streptavidin-coated plates
T11 peptide: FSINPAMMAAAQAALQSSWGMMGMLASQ

[16] = target: T12, synthetic biotinylated peptide TDP-43 316-333 (human, also: biotinylated (site not given here)); test: as above
T12 construct: On streptavidin-coated plates
T12 peptide: FSINPAMMAAAQAALQSS

BSA = target: T13, BSA (bovine, UniProt P02769); test: direct ELISA, BSA coated at 5 ug/ml as control, OD 450
T13 construct: control coating in the EC50 ELISA; also called bovine serum albumin (Sigma, Buchs, Switzerland)
T13 sequence (P02769 25-607 limits assumed): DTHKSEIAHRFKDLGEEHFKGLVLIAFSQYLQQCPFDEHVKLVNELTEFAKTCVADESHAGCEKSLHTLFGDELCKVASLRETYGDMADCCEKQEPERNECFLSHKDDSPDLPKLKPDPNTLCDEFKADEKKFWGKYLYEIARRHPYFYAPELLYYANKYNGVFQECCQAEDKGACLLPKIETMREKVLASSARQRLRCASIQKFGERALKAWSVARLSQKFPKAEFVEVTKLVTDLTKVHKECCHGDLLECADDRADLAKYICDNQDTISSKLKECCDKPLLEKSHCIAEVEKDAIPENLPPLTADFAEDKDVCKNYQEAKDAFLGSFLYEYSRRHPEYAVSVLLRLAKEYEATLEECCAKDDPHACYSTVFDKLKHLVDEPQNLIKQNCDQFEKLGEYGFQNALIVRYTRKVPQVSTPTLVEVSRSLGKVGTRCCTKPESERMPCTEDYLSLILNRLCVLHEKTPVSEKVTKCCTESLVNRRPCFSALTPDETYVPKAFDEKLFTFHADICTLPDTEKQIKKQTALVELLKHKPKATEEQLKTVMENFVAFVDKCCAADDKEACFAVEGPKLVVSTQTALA
Experimental: To determine the half maximal effective concentration (EC₅₀) of the human-derived TDP-43-specific antibodies for human TDP-43 and to evaluate target-specificity, 96 well microplates (Corning) were coated with recombinant full length TDP-43 (Biogen Idec, USA), Escherichia coli extract and BSA (Sigma, Buchs, Switzerland), diluted to a concentration of 5 μg/ml in carbonate ELISA coating buffer (pH 9.6) overnight at 4° C. […] Non-specific binding sites were blocked for 1 hr. at room temperature with PBS containing 2% BSA (Sigma, Buchs, Switzerland). Human TDP-43-specific antibodies were diluted to the indicated concentrations and incubated 1 hr. at room temperature. Binding was determined using a donkey anti-human IgGγ-specific secondary antibody conjugated with HRP (Jackson ImmunoResearch, USA), followed by measurement of HRP activity in a standard colorimetric assay. EC₅₀ values were estimated by a non-linear regression using GraphPad Prism software (San Diego, USA).
The half maximal effective concentration (EC₅₀) of the human-derived TDP-43-specific antibodies for human TDP-43 and their target target-specificity was determined substantially as described in Example 2 above. […]

[17] = target: T4, His-huTDP-43 domain IV (amino acid …); test: direct ELISA, TDP-43 fragments coated at 6.6 ug/ml, OD 450
Experimental: as §3

[18] = target: T6, His-huTDP-43 domain III (amino acid …); test: as above
Experimental: as §3

[19] = target: T3, His-huTDP-43 domain II (amino acid …); test: as above
Experimental: as §3

[20] = target: T5, His-huTDP-43 domain I (amino acid …); test: direct ELISA, coated antigen; direct ELISA, domain coated at 6.6 ug/ml (Example 7, FIG. 5M)
Experimental: as §3
(§5) Binding of the human-derived antibodies was determined by direct ELISA.

[21] = target: T5, His-huTDP-43 domain I (amino acid …); test: direct ELISA, coated antigen; direct ELISA, domain coated at 6.6 ug/ml (Example 7, FIG. 5)
Experimental: as §3, §5

[22] = target: T14, 6xHis-SUMO-TDP-43 (1-414), properly folded full length (human, UniProt Q13148 1-414); test: capture ELISA, antigen held by anti-6xHis antibody
T14 construct: Purified with KSCN and arginine, monomeric; captured on the plate by an anti-6xHis antibody; also called folded full-length TDP-43; 6xHis/SUMO tagged full length TDP-43; not shown: N-terminal 6xHis and SUMO tags from a modified pET19-b vector
Summary of the method: as §2

B1: NI-205.113C4 (antibody, human IgG1, V domains shown)
VH: QVQLVQSGAEVKKPGASVKVSCKASGYTFTNYYMHWVRQAPGQGLEWMGIINPSGGRTSYAQKFQGRASMTRDTSTSTVYMEVISLRSEDTAVYYCARQRPSGYSGYGPSESYGNPTDDAFDVWGQGTTVTVSS
VL: SYVLTQPPSVSVAPGQTARITCGGNNIGSRGVHWYQQRPGQAPVLVVYDDSDRPSGIPERFSGSNSGDTATLTISRVEVGDEADYYCQVWDNSSDHLVVFGGGTKLTVL
notes: Human-derived
- EC50 [1]: 13.2 nM
- EC50 [2]: 13.2 nM
- binding result [3]: no binding
- binding result [4]: binds
- binding result [5]: no binding
- binding result [6]: no binding
- binding result [7]: no binding

B2: NI-205.87E7 (antibody, human IgG1, V domains shown)
VH: EVQLLESGGGLVQPGGSLRLSCAASGFTFSSYAMSWVRQAPGKGLEWVSAISGGGDRTYSADSVKGRFTISRDNSKNTLYLQINSLRVEDTAVYYCAQGGGGEMTAVTMDGTYYGMDVWGQGTTVTVSS
VL: QSALTQPRSVSGSPGQSITISCTGTSSNVGTYKFVSWYQQHPGKAPKLMIYDVTKRPSGVPDRFSGSKSGNTASLTISGLQAEDEADYYCCSYAGSYTYVFGSGTKVTVL
notes: Human-derived
- EC50 [1]: 17.2 nM
- EC50 [2]: 17.2 nM
- binding result [8]: binds
- binding result [3]: no binding
- binding result [5]: no binding
- binding result [7]: no binding
- binding result [9]: no binding

B3: NI-205.41D1 (antibody, human IgG1, V domains shown)
VH: EVQLVESGGGLVQPGGSLRLSCAASGFTFSTYYMSWVRQAPGKGLEWVANIKQDGSEKYYVDSVKGRFTISRDNARNSLYLQMHSLRAEDTAVYYCASPPGWWGQGTLVTVSS
VL: DIVMTQTPLSLSVTPGQPASISCKSSQSLLHSDGKTYLYWYLQKPGQPPQLLIYEVSNRFSGVPDRFSGSGSGTDFTLKISRVEAEDVGVYYCMQSIQLPVTFGGGTKVEIK
notes: Human-derived; also called NI-41D1
- binding result [10]: no binding
- binding result [11]: no binding
- binding result [12]: no binding
- binding result [13]: no binding
- binding result [14]: binds
- binding result [15]: binds
- binding result [16]: no binding
- EC50 [3]: 0.1 nM
- binding result (BSA): no binding (tested: about 4x10^5 pM)

B4: NI-205.8C10 (antibody, human IgG1, V domains shown)
VH: EVQLVESGGGLVNPGGSLRLSCTASGFSFSTYSMNWVRQAPGKGLEWVSLITSSGSYIYYADSVKGRFTISRDDAKNSLYLQMNSLRAEDTAVYYCANMLAAAGSHYFHYWGQGTLVTVSS
VL: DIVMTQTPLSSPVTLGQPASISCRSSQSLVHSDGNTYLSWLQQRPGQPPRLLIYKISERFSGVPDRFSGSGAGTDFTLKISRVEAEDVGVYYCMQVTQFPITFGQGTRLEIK
notes: Human-derived
- EC50 [1]: 15.6 nM
- binding result [17]: no binding
- binding result [18]: no binding
- binding result [19]: no binding
- binding result [20]: binds

B5: NI-205.29E11 (antibody, human IgG1, V domains shown)
VH: QVQLVQSGAEVKKPGASVKVSCKASGYIFTDYFIHWIRQAPGQGLEWMGWIKPKSGGTDYAEKFQGRVTLTRDTSITTVYMELSRLNSDDTAVYYCARLKYSVPDSDYWGQGTLVTVSS
VL: DVVMTQSPLSLPVTLGQSASISCRSSQGLVHSDGNTYLNWFHQRPGQSPRRLIYKVFNRDSGVSDRFSGSGSGSDFTLMISRVEAEDVGIYYCMQGTLWPLTFGQGTKVEIK
notes: Human-derived
- EC50 [1]: 10.4 nM
- binding result [21]: binds
- EC50 [22]: > 100 nM
- EC50 [3]: > 97 nM
